The text below walks through data of paper PMC7503845.

The target of assay [1] is full length recombinant human active CK1 epsilon (CK1ε) (human) (UniProt P49674).
For assay [2] the target is unchanged. The source holds these as a separate data set.
Assay [3] has the same target. The source holds these as a separate data set.
The target is the same in assay [4]. This is another data set of the same source.

Chain of UniProt P49674 (P49674 whole entry): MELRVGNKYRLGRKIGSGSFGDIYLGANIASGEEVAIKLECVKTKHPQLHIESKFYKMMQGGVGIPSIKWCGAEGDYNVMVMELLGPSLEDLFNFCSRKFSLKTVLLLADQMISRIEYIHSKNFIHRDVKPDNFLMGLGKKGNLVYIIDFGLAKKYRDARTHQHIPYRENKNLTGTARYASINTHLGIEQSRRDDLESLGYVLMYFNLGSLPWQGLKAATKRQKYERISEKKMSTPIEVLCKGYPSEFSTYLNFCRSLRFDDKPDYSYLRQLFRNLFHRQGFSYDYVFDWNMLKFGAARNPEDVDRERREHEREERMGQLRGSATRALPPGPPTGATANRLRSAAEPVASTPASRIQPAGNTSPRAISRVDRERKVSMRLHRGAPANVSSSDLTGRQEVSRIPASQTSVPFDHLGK

On to “dephosphorylated native casein mixture (Casein)”, for which, in assay [1], the Km^Casein of the kinase reaction at fixed ATP of 7.5, 15, 30 and 60 μM (4.6, 3.9, 4.8 and 4.0 μM) was 4.8 µM; the kcat / Km^Casein of the kinase reaction at fixed ATP of 7.5, 15, 30 and 60 μM (2.5, 4.1, 6.3 and 10.8 min^-1 μM^-1) worked out at 180000 M⁻¹ s⁻¹.
Consider “recombinant human DDX3X wild-type (WT) (from UniProt O00571 1-662) (enzyme)”, for which the Km of CK1ε for DDX3X in the kinase reaction (33P incorporation; DDX3X 0.06-1 μM, ATP fixed at 30 μM, 25 ng CK1ε, 15 min) in assay [2] was 0.2 µM. Also, in assay [3], the Km^DDX3X of the kinase reaction at fixed ATP of 15, 30, 60 and 120 μM (0.6, 0.5, 0.7 and 0.7 μM) stood at 0.7 µM; the kcat / Km^DDX3X of the kinase reaction at fixed ATP of 15, 30, 60 and 120 μM (5.5, 8.4, 11.9 and 18.9 min^-1 μM^-1) is 315000 M⁻¹ s⁻¹.

B1: full length recombinant human disheveled 2 (Dvl2) (natural protein)
chain: MAGSSTGGGGVGETKVIYHLDEEETPYLVKIPVPAERITLGDFKSVLQRPAGAKYFFKSMDQDFGVVKEEISDDNARLPCFNGRVVSWLVSSDNPQPEMAPPVHEPRAELAPPAPPLPPLPPERTSGIGDSRPPSFHPNVSSSHENLEPETETESVVSLRRERPRRRDSSEHGAGGHRTGGPSRLERHLAGYESSSTLMTSELESTSLGDSDEEDTMSRFSSSTEQSSASRLLKRHRRRRKQRPPRLERTSSFSSVTDSTMSLNIITVTLNMEKYNFLGISIVGQSNERGDGGIYIGSIMKGGAVAADGRIEPGDMLLQVNDMNFENMSNDDAVRVLRDIVHKPGPIVLTVAKCWDPSPQAYFTLPRNEPIQPIDPAAWVSHSAALTGTFPAYPGSSSMSTITSGSSLPDGCEGRGLSVHTDMASVTKAMAAPESGLEVRDRMWLKITIPNAFLGSDVVDWLYHHVEGFPERREARKYASGLLKAGLIRHTVNKITFSEQCYYVFGDLSGGCESYLVNLSLNDNDGSSGASDQDTLAPLPGATPWPLLPTFSYQYPAPHPYSPQPPPYHELSSYTYGGGSASSQHSEGSRSSGSTRSDGGAGRTGRPEERAPESKSGSGSESEPSSRGGSLRRGGEASGTSDGGPPPSRGSTGGAPNLRAHPGLHPYGPPPGMALPYNPMMVVMMPPPPPPVPPAVQPPGAPPVRDLGSVPPELTASRQSFHMAMGNPSEFFVDVM
Regarding B1, in assay [4], the Km^Dvl2 of the kinase reaction at fixed ATP of 7.5, 30, 60 and 120 μM (0.5, 1.1, 0.9 and 0.4 μM) worked out at 1.1 µM; the kcat / Km^Dvl2 of the kinase reaction at fixed ATP of 7.5, 30, 60 and 120 μM (76.4, 98.8, 159.3 and 261.7 min^-1 μM^-1) worked out at 4.36e+06 M⁻¹ s⁻¹.
